Data published in paper PMC6389893.

Tests used:
Experiment in all cases: pull-down; GST fusion proteins (2 µg) on agarose beads, nuclease-treated, with in vitro translated [35S]-TRIM33; NETN buffer (20 mM Tris HCl pH 7.5, 100 mM NaCl, 1 mM EDTA, 0.5% NP-40, 1 mM DTT) with 200 µg/ml ethidium bromide, 1 h at 4 °C; phosphoimaging, bound as percent of input
[1] = target: GST-IN N-terminal domain (HIV-1)
[2] = target: GST-IN catalytic core domain (HIV-1)
[3] = target: GST-IN C-terminal domain (HIV-1)
[4] = target: GST-IN full length (HIV-1)

B1: in vitro translated [35S]-TRIM33 (natural protein)
chain: MAENKGGGEAESGGGGSGSAPVTAGAAGPAAQEAEPPLTAVLVEEEEEEGGRAGAEGGAAGPDDGGVAAASSGSAQAASSPAASVGTGVAGGAVSTPAPAPASAPAPGPSAGPPPGPPASLLDTCAVCQQSLQSRREAEPKLLPCLHSFCLRCLPEPERQLSVPIPGGSNGDIQQVGVIRCPVCRQECRQIDLVDNYFVKDTSEAPSSSDEKSEQVCTSCEDNASAVGFCVECGEWLCKTCIEAHQRVKFTKDHLIRKKEDVSESVGASGQRPVFCPVHKQEQLKLFCETCDRLTCRDCQLLEHKEHRYQFLEEAFQNQKGAIENLLAKLLEKKNYVHFAATQVQNRIKEVNETNKRVEQEIKVAIFTLINEINKKGKSLLQQLENVTKERQMKLLQQQNDITGLSRQVKHVMNFTNWAIASGSSTALLYSKRLITFQLRHILKARCDPVPAANGAIRFHCDPTFWAKNVVNLGNLVIESKPAPGYTPNVVVGQVPPGTNHISKTPGQINLAQLRLQHMQQQVYAQKHQQLQQMRMQQPPAPVPTTTTTTQQHPRQAAPQMLQQQPPRLISVQTMQRGNMNCGAFQAHQMRLAQNAARIPGIPRHSGPQYSMMQPHLQRQHSNPGHAGPFPVVSVHNTTINPTSPTTATMANANRGPTSPSVTAIELIPSVTNPENLPSLPDIPPIQLEDAGSSSLDNLLSRYISGSHLPPQPTSTMNPSPGPSALSPGSSGLSNSHTPVRPPSTSSTGSRGSCGSSGRTAEKTSLSFKSDQVKVKQEPGTEDEICSFSGGVKQEKTEDGRRSACMLSSPESSLTPPLSTNLHLESELDALASLENHVKIEPADMNESCKQSGLSSLVNGKSPIRSLMHRSARIGGDGNNKDDDPNEDWCAVCQNGGDLLCCEKCPKVFHLTCHVPTLLSFPSGDWICTFCRDIGKPEVEYDCDNLQHSKKGKTAQGLSPVDQRKCERLLLYLYCHELSIEFQEPVPASIPNYYKIIKKPMDLSTVKKKLQKKHSQHYQIPDDFVADVRLIFKNCERFNEMMKVVQVYADTQEINLKADSEVAQAGKAVALYFEDKLTEIYSDRTFAPLPEFEQEEDDGEVTEDSDEDFIQPRRKRLKSDERPVHIK
modifications: [35S]-labeled
[1]
  percent of radiolabeled input bound: < 3%
[2]
  percent of radiolabeled input bound: < 3%
[3]
  percent of radiolabeled input bound: > 8.5%
[4]
  percent of radiolabeled input bound: > 8.5%
